Test results reported in patent publication US20230287372.

How the values were obtained:
Assay in all cases: cell_activity
SeqID63 (WO2019/030695) = conditions: PAM TTTA
SuCms1 = conditions: PAM TTTA
[1] = tested on: T1, BEC67 (Artificial (engineered chimeric Cms1-like CRISPR nuclease)); conditions: no-spacer negative control; 30 C
T1 sequence: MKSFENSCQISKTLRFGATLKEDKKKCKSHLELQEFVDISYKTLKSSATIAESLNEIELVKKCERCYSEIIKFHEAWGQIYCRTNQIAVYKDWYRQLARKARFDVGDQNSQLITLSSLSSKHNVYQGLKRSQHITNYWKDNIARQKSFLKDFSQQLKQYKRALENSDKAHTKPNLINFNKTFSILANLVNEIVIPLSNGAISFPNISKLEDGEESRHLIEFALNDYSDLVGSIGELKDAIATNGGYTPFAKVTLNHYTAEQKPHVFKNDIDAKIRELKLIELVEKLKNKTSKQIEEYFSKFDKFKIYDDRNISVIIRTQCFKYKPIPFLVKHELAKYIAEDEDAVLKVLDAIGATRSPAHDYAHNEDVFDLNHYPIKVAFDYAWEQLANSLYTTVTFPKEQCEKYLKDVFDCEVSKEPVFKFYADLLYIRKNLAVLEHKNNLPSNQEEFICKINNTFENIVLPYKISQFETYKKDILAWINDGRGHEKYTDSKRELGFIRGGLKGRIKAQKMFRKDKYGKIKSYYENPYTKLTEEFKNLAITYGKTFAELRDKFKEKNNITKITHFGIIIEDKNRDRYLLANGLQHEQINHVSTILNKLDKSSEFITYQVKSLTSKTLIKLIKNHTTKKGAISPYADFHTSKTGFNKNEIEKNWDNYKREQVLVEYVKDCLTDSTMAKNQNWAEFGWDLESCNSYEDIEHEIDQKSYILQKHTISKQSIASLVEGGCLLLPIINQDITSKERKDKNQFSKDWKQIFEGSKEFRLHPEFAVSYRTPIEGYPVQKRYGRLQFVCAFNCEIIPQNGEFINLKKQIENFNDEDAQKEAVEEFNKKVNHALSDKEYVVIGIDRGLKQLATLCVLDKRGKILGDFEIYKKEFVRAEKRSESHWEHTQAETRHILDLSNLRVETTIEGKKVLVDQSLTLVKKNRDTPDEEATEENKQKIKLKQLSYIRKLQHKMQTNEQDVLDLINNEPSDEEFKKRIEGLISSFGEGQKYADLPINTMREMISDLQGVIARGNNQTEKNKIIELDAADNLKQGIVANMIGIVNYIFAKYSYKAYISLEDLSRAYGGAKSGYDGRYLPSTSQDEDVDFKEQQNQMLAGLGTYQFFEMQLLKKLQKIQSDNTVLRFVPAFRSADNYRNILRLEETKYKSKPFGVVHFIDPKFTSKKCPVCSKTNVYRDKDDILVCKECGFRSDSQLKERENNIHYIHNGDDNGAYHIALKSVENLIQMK

[2] = tested on: T2, BEC10 (Artificial (engineered chimeric Cms1-like CRISPR nuclease)); conditions: no-spacer negative control; 30 C
T2 sequence: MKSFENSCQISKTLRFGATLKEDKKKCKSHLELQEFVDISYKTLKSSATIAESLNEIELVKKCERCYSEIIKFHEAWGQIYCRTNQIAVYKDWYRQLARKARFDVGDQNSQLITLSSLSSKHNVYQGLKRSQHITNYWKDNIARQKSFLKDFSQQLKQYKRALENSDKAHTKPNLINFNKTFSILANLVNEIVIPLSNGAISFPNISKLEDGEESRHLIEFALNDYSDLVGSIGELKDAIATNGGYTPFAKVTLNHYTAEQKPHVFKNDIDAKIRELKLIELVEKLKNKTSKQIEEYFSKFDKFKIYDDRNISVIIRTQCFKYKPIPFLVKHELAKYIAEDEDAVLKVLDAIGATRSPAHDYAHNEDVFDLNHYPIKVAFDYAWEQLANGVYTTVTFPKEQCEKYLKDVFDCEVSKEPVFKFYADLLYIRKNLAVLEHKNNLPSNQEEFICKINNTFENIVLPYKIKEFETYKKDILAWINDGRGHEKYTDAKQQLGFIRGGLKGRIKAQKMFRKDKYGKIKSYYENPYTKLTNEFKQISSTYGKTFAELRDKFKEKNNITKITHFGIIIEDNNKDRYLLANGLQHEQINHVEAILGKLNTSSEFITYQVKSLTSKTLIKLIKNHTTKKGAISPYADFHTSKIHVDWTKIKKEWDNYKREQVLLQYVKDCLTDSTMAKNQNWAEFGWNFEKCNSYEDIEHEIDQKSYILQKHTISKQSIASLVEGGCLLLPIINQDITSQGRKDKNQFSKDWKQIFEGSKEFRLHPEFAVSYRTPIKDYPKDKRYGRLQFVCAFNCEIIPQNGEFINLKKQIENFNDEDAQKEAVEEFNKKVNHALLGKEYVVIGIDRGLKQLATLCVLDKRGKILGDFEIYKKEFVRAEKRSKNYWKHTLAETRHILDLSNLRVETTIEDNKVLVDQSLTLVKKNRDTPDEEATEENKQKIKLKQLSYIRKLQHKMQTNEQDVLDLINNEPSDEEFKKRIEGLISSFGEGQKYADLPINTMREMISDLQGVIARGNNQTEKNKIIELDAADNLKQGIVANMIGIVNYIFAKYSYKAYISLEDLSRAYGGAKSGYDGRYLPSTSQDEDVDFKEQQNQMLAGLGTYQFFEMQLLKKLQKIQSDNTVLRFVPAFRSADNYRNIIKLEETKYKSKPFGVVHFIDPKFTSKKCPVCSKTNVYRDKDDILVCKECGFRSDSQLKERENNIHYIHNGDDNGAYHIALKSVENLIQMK

[3] = tested on: T3, BEC85 (Artificial (engineered chimeric Cms1-like CRISPR nuclease)); conditions: no-spacer negative control; 30 C
T3 sequence: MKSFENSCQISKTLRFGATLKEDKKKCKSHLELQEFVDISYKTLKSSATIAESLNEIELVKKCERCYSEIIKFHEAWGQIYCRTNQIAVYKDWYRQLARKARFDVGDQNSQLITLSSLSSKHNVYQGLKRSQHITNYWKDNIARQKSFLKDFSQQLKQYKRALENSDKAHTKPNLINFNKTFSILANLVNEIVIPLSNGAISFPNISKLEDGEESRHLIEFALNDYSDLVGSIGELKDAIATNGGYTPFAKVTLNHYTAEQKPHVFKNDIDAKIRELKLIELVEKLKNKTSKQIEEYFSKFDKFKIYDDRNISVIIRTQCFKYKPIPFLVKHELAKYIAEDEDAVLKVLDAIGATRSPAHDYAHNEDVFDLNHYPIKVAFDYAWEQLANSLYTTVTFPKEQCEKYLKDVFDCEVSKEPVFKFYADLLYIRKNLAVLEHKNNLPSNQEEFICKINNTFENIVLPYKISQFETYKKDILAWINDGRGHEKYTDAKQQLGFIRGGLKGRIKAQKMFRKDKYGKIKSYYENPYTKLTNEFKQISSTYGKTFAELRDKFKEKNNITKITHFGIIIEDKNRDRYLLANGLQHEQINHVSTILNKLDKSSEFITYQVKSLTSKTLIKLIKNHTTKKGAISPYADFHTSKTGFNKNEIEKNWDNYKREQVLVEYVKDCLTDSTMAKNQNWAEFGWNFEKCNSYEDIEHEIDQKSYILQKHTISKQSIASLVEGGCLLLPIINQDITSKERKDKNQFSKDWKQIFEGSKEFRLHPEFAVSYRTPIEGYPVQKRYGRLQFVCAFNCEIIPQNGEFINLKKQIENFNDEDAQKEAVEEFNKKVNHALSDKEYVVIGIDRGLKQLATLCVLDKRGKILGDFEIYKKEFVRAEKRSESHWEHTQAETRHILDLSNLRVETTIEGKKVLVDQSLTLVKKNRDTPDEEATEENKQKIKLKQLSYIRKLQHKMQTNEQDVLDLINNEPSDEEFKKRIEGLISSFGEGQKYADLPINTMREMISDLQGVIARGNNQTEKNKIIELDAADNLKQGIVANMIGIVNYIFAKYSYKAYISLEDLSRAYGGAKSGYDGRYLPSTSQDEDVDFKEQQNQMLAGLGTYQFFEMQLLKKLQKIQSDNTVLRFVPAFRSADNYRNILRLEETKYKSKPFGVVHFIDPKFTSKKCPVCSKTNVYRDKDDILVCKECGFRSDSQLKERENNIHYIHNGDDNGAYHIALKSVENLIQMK

Substance: Ade2 gRNA for Cms1 comparators ; Ade2 target
- activity (% editing efficiency) (SeqID63 (WO2019/030695); S. cerevisiae 21 C): 0.2
- activity (% editing efficiency) (SeqID63 (WO2019/030695); S. cerevisiae 30 C, comparable to negative control): 0.2
- activity (% editing efficiency) (SuCms1; S. cerevisiae 21 C, near negative control): 0.3
- activity (% editing efficiency) (SuCms1; S. cerevisiae 30 C, 3% fully edited): 5

Substance: rpoB gRNA for Cms1 comparators ; rpoB target
- activity (% colony reduction) (SeqID63 (WO2019/030695); E. coli depletion assay 37 C): 0
- activity (% colony reduction) (SuCms1; E. coli depletion assay 37 C): 72

Substance: gRNA cassette without spacer ; Ade2 target
- activity (% editing efficiency) [1]: 0.2
- activity (% editing efficiency) [2]: 0.2
- activity (% editing efficiency) [3]: 0.2
